Results: PMC10803816, “EGFR core fucosylation, induced by hepatitis C virus, promotes TRIM40-mediated-RIG-I ubiquitination and suppresses interferon-I antiviral defenses”

Tests used:
[1] = confocal EGFR/Lamp1 colocalisation after EGF, Huh7; details: glycan lost; control: wild-type EGFR
[2] = RT-qPCR of HCV RNA, 48 h infection; details: glycan lost; control: EGFR KO Huh7 complemented with wild-type EGFR
[3] = immunoblot of total EGFR; details: glycan lost; control: wild-type Flag-EGFR
[4] = target: T1, His6-SNAIL (UniProt O95863 1-264); assay: EMSA; text: SNAIL lost ability to bind mutant probe; legend and Methods leave open whether labeled or competitor; Beyotime EMSA kit GS005 per manufacturer; 8% native PAGE; buffer, salt, pH and temperature not stated; details: protein: recombinant; tags: His6 (pET28a); label: 5' FAM per Methods (legend also mentions mutant probe added at 300 nM); blunt
T1 sequence (O95863 whole entry): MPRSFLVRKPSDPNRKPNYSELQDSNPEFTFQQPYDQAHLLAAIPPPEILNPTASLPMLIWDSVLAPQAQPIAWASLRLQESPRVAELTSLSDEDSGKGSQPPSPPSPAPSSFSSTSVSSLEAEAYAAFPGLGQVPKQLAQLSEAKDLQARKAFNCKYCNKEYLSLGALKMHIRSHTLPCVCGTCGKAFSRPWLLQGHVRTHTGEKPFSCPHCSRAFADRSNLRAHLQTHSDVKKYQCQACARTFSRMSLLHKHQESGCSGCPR

[5] = target: T1, His6-SNAIL; assay: EMSA; increasing SNAIL; Beyotime EMSA kit GS005 per manufacturer; 8% native PAGE; buffer, salt, pH and temperature not stated; details: protein: recombinant; tags: His6 (pET28a); label: 5' FAM; blunt
[6] = target: T1, His6-SNAIL; assay: competition; 10-fold excess (300 nM) unlabeled probe abolished binding to WT-FAM probe; Beyotime EMSA kit GS005 per manufacturer; 8% native PAGE; buffer, salt, pH and temperature not stated; details: protein: recombinant; tags: His6 (pET28a); blunt

Epidermal growth factor receptor (EGFR, ErbB1, HER1): N352Q
localisation_or_trafficking [1]: decreases
other: viral replication [2]: decreases
expression_or_secretion [3]: no change

B1: FUT8 promoter Mut probe (dsDNA)
DNA 1: TACACTTCCTGACGTGAGAGGGGTCAGAGTGTGGGT
DNA 2: ACCCACACTCTGACCCCTCTCACGTCAGGAAGTGTA
binding result [4]: no binding

B2: FUT8 promoter WT probe (-295 to -260) (dsDNA)
DNA 1: TACACTTCCTGACGTGGCAGGTGAGAGAGTGTGGGT
DNA 2: ACCCACACTCTCTCACCTGCCACGTCAGGAAGTGTA
binding result [5]: binds

B3: FUT8 promoter WT unlabeled competitor (dsDNA)
DNA 1: TACACTTCCTGACGTGGCAGGTGAGAGAGTGTGGGT
DNA 2: ACCCACACTCTCTCACCTGCCACGTCAGGAAGTGTA
binding result [6]: binds
